Experimental data: doi:10.1101/282814 (bioRxiv, 2018)

B1: human TRPC6 channel, full length, tags cleaved, in MSP2N2 lipid nanodiscs (natural protein, UniProt Q9Y210 1-931, looked up)
chain: MSQSPAFGPRRGSSPRGAAGAAARRNESQDYLLMDSELGEDGCPQAPLPCYGYYPCFRGSDNRLAHRRQTVLREKGRRLANRGPAYMFSDRSTSLSIEEERFLDAAEYGNIPVVRKMLEECHSLNVNCVDYMGQNALQLAVANEHLEITELLLKKENLSRVGDALLLAISKGYVRIVEAILSHPAFAEGKRLATSPSQSELQQDDFYAYDEDGTRFSHDVTPIILAAHCQEYEIVHTLLRKGARIERPHDYFCKCNDCNQKQKHDSFSHSRSRINAYKGLASPAYLSLSSEDPVMTALELSNELAVLANIEKEFKNDYKKLSMQCKDFVVGLLDLCRNTEEVEAILNGDVETLQSGDHGRPNLSRLKLAIKYEVKKFVAHPNCQQQLLSIWYENLSGLRQQTMAVKFLVVLAVAIGLPFLALIYWFAPCSKMGKIMRGPFMKFVAHAASFTIFLGLLVMNAADRFEGTKLLPNETSTDNAKQLFRMKTSCFSWMEMLIISWVIGMIWAECKEIWTQGPKEYLFELWNMLDFGMLAIFAASFIARFMAFWHASKAQSIIDANDTLKDLTKVTLGDNVKYYNLARIKWDPSDPQIISEGLYAIAVVLSFSRIAYILPANESFGPLQISLGRTVKDIFKFMVIFIMVFVAFMIGMFNLYSYYIGAKQNEAFTTVEESFKTLFWAIFGLSEVKSVVINYNHKFIENIGYVLYGVYNVTMVIVLLNMLIAMINSSFQEIEDDADVEWKFARAKLWFSYFEEGRTLPVPFNLVPSPKSLFYLLLKLKKWISELFQGHKKGFQEDAEMNKINEEKKLGILGSHEDLSKLSLDKKQVGHNKQPSIRSSEDFHLNSFNNPPRQYQKIMKRLIKRYVLQAQIDKESDEVNEGELKEIKQDISSLRYELLEEKSQNTEDLAELIRELGEKLSMEPNQEETNR
B2: N-terminal GFP-tagged hTRPC6 (natural protein, human, UniProt Q9Y210 1-931, looked up)
chain: MSQSPAFGPRRGSSPRGAAGAAARRNESQDYLLMDSELGEDGCPQAPLPCYGYYPCFRGSDNRLAHRRQTVLREKGRRLANRGPAYMFSDRSTSLSIEEERFLDAAEYGNIPVVRKMLEECHSLNVNCVDYMGQNALQLAVANEHLEITELLLKKENLSRVGDALLLAISKGYVRIVEAILSHPAFAEGKRLATSPSQSELQQDDFYAYDEDGTRFSHDVTPIILAAHCQEYEIVHTLLRKGARIERPHDYFCKCNDCNQKQKHDSFSHSRSRINAYKGLASPAYLSLSSEDPVMTALELSNELAVLANIEKEFKNDYKKLSMQCKDFVVGLLDLCRNTEEVEAILNGDVETLQSGDHGRPNLSRLKLAIKYEVKKFVAHPNCQQQLLSIWYENLSGLRQQTMAVKFLVVLAVAIGLPFLALIYWFAPCSKMGKIMRGPFMKFVAHAASFTIFLGLLVMNAADRFEGTKLLPNETSTDNAKQLFRMKTSCFSWMEMLIISWVIGMIWAECKEIWTQGPKEYLFELWNMLDFGMLAIFAASFIARFMAFWHASKAQSIIDANDTLKDLTKVTLGDNVKYYNLARIKWDPSDPQIISEGLYAIAVVLSFSRIAYILPANESFGPLQISLGRTVKDIFKFMVIFIMVFVAFMIGMFNLYSYYIGAKQNEAFTTVEESFKTLFWAIFGLSEVKSVVINYNHKFIENIGYVLYGVYNVTMVIVLLNMLIAMINSSFQEIEDDADVEWKFARAKLWFSYFEEGRTLPVPFNLVPSPKSLFYLLLKLKKWISELFQGHKKGFQEDAEMNKINEEKKLGILGSHEDLSKLSLDKKQVGHNKQPSIRSSEDFHLNSFNNPPRQYQKIMKRLIKRYVLQAQIDKESDEVNEGELKEIKQDISSLRYELLEEKSQNTEDLAELIRELGEKLSMEPNQEETNR

Legend:
cryo-EM structure = target: the molecule itself; test: cryo-EM structure
SEC = target: the molecule itself; test: SEC

Row | Protein | stoichiometry N (cryo-EM structure) | stoichiometry N (SEC)
1 | B1 | 4 | –
2 | B2 | – | 4
